In article PMC4397081:

Biological target: Type 2 (MM2) sCJD proteinase K-resistant PrP^Sc aggregates (human)
Test: sedimentation velocity in sucrose gradient (ultracentrifugation)

With “Type 2 (MM2) sCJD proteinase K-resistant PrP^Sc aggregates (complex)” the stoichiometry N was greater than 600 monomers.
